From patent US20030092616A1, “STAT6 activation gene” (priority 2001, published 2003)

System: STAT6
Experiment: Screening of full-length cDNA clones for promotion of STAT6 activation (luciferase reporter N4×8-luc)
Format: cell-based
Conditions: NIH3T3 cells cotransfected with N4×8-luc reporter and cDNA plasmid; 48 h culture, then mouse IL-4 0.5 ng/ml for 6 h
Description: As a preferable method, NIH3T3 cells are inoculated on 10% FBS (Fetal Bovine Serum)-containing IMDM medium in a 96-well cell culture plate to a final cell density of 1×10^4 cells/well, and cultured for 24 hours at 37° C., in the presence of 5% CO2. Then, the luciferase reporter plasmid N4×8-luc which has a STAT6 response sequence, and the expression vector are cotransfected into the cells in a well using FuGENE 6 (Roche). After 48 hours of culture at 37° C., in the presence of 5% CO2 mouse IL-4 (Immuno Biological Laboratories Co., Ltd.) is added to a final concentration of 0.5 ng/ml. After culturing for further 6 hours, promoting activity for STAT6 activation is then measured by measuring luciferase activity using a long term luciferase assay system, Picagene LT2.0 (Toyo Ink Mfg). For example, luciferase activity can be measured using PerkinElmer's Wallac ARVOTMST 1420 MULTILABEL COUNTER. The method for gene introduction by FuGENE6, and measurement of luciferase activity by Picagene LT2.0 can be performed respectively according to the attached protocols. In a method of gene introduction with a 96-well plate using FuGENE6, the amount of FuGENE6 per 1 well is suitably 0.3 to 0.5 μl, preferably 0.3 μl; the amount of N4×8-luc reporter plasmid is suitably 50 to 100 ng, preferably 100 ng; and the amount of expression vector is suitably 50 to 100 ng, preferably 100 ng. An ability (action) to promote STAT6 activation refers to an ability to increase the reporter activity (luciferase activity) relative to the control experiment (for cells into which the reporter gene and a null vector were introduced). Increase in reporter activity is preferably by a factor of 1.5 or more, more preferably by a factor of 3 or more, and still more preferably by a factor of 6 or more.
NIH3T3 cells (purchased from Dainippon Pharmaceutical) were grown to 1×10^4 cells/well in a 96 well plate for cell culture for 24 hours at 37° C. (in the presence of 5% CO2) using 10% FBS containing IMDM medium. Then, 100 ng of luciferase reporter plasmid N4×8-luc having a STAT6 response sequence and 2 μl of the full-length cDNA prepared in above Example 1.(3) were cotransfected into the cells in a well using FuGENE 6 (purchased from Roche) according to the manufacturer's protocol. The luciferase reporter plasmid N4×8-luc having the STAT6 response sequence was constructed as follows. […] 157, 2058-2065 (1996)], oligonucleotides having the following sequences were synthesized:
The synthesized oligonucleotides were dissolved in sterile water to be 1μg/μl, respectively, mixed in 10 μl lots, and adjusted the volume to 32 μl with sterile water. The solution was heated for 5 min at 90° C., and gradually cooled down to room temperature to prepare a double-stranded oligonucleotide solution. The solution was reacted with T4 polynucleotide kinase (Takara Shuzo) according to the attached manual, then the reaction product was purified in a usual manner. Separately, SV40 promoter region of pGL3-Promoter vector (Promega) was replaced by the HSV thymidine kinase promoter sequence (from −50 to +10) with Hind III site and BglII site to construct a vector tk-luc. The aforesaid double-stranded oligonucleotide fragments were inserted into the XhoI site of this tk-luc vector using T4 DNA ligase (GIBCO/BRL). The obtained clones were sequenced according to a usual method, and clones in which plural oligonucleotide fragments were inserted were selected. […] The four-interlinked DNA fragments were excised from the N4×4-luc with a XhoI and a BglII site and purified to be inserted into a BamHI and a XhoI site of pBluescript II KS+ (Stratagene). The four-interlinked DNA fragments were excised from this plasmid with KpnI and SpeI and inserted into a KpnI and a NheI site of N4×4-luc plasmid to finally obtain N4×8-luc.

B1: 261 (nucleic acid, listed as Homo sapiens)
chain: AGTGCGCGAAGATGCGAAAGGTGGTTTTGATCACCGGGGCTAGCAGTGGCATTGGCCTGGCCCTCTGCAAGCGGCTGCTGGCGGAAGATGATGAGCTTCATCTGTGTTTGGCGTGCAGGAACATGAGCAAGGCAGAAGCTGTCTGTGCTGCTCTGCTGGCCTCTCACCCCACTGCTGAGGTCACCATTGTCCAGGTGGATGTCAGCAACCTGCAGTCGGTCTTCCGGGCCTCCAAGGAACTTAAGCAAAGGTTTCAGAGATTAGACTGTATATATCTAAATGCTGGGATCATGCCTAATCCACAACTAAATATCAAAGCACTTTTCTTTGGCCTCTTTTCAAGAAAAGTGATTCATATGTTCTCCACAGCTGAAGGCCTGCTGACCCAGGGTGATAAGATCACTGCTGATGGACTTCAGGAGGTGTTTGAGACCAATGTCTTTGGCCATTTTATCCTGATTCGGGAACTGGAGCCTCTCCTCTGTCACAGTGACAATCCATCTCAGCTCATCTGGACATCATCTCGCAGTGCAAGGAAATCTAATTTCAGCCTCGAGGACTTCCAGCACAGCAAAGGCAAGGAACCCTACAGCTCTTCCAAATATGCCACTGACCTTTTGAGTGTGGCTTTGAACAGGAACTTCAACCAGCAGGGTCTCTATTCCAATGTGGCCTGTCCAGGTACAGCATTGACCAATTTGACATATGGAATTCTGCCTCCGTTTATATGGACGCTGTTGATGCCGGCAATATTGCTACTTCGCTTTTTTGCAAATGCATTCACTTTGACACCATATAATGGAACAGAAGCTCTGGTATGGCTTTTCCACCAAAAGCCTGAATCTCTCAATCCTCTGATCAAATATCTGAGTGCCACCACTGGCTTTGGAAGAAATTATATTATGACCCAGAAGATGGACCTAGATGAAGACACTGCTGAAAAATTTTATCAAAAGTTACTGGAACTGGAAAAGCACATTAGGGTCACTATTCAAAAAACAGATAATCAGGCCAGGCTCAGTGGCTCATGCCTATAATTCCAGCACTTTGGGAGGCCAAGGCAGAAGGATCACTTGAGACCAGGAGTTCAAGACCAGCCTGAGAAACATAGTGAGCCCTTGTCTCTACAAAAAGAAATAAAAATAATAGCTGGGTGTGGTGGCATGCGCATGTAGTCCCAGCTACTCAGAAGGATGAGGTGGGAGGATCTCTTGAGGCTGGGAGGCAGAGGTTGCAGTGAGCTGAGATTGTGCCACTGCACTCCAGCCTGGGTGACAGCGAGACCCTGTCTCAAAATATGTATATATTTAATATATATATAAAACCAGAGCTGACAATGACACTCTGGAACATTGCATACCTTCTGTACATTCTGGGGTACATGGATTTCTACTGAGTTGGATAATATGCATTTGTAATAAACTATGAACTATG
modifications: CDS (12)..(1034)
Activity = (luciferase activity of the gene of each SEQ ID NO:)/(luciferase activity of pME18S-FL3): 14.7
